Assay: label from the status in PepcDB records
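Note: failed if final PepcDB status was selected cloned or expressed and not failed if soluble or beyond.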

| Sequence | protein production |
| --- | --- |
| IVAGFTSIPSQGDNMPAYHARPKQSDGPLPVVIVVQEIFGVHEHIRDICRRLALEGYLAIAPELYFREGDPNDFADIPTLLSGLVAKVPDSQVLADLDHVASWASRNGGDVHRLMITGFCWGGRITWLYAAHNPQLKAAVAWYGKLTGDKSLNSPKQPVDIATDLNAPVLGLYGGQDNSIPQESVETMRQALRAANAKAEIIVYPDAGHAFNADYRPSYHAESAKDGWQRMLEWFTQY | failed |
| MNIQSILSDKIKQAMILAGADQSCDALIRQSGKPQFGDYQANGIMAAAKKLGLNPREFAQKVLDNLQLSDIAEKLEIAGPGFINIFLNPTWLTTEISAALSHK | failed |
| MCLALPAQIDQVLEDNKAIVNLGGITKEISTVLLEQVSEGEYVIIHAGFALTKLDEREANKTLSLFAHMLKDG | not failed |
| MSRVKILDEETISHIAAGEVVERAASVVKELVENAVDADAQIIRIGISADKTGITKISVTDDGIGMDFDDALLAFRQHATSKISRPEDLDGITTLGFRGEALASIAAISKVTFTTKERGSPSPEAARVVIHGGELISHSAVGAPEGTSVLIDALFYNTPARRKFQKSVPTELSHVYDMVERIALSNRNISFVLLYNGKERFQTFGTGSYPDVIAAVFGSTFSKELTPVSGSFGPVKIDGWITRPGSEMKTTQTRFYLSINGRQVTSRQLQWAIREGYGTLLPKGMYPAAFLDIVLDPRDVDVNVHPTKREVRLSREREVMRCVQDAVYTSLHEERVFSTAPMPTLARETITTLPVEIVGEPVPVYAGKQEMHEARQAPLKQTEKQLRRTESADLPETDLFVPEVLGQIGDTYILAKNESGDLIVVDQHAAHERIMYDQLLARSSSAEAGQELIVPQPITLSKKETAALPDLLDVLAAAGYLLEPFGKDVWMVRSVPVVSSTLGDPDTIHAILDAALDGVGNTDEVLDRVLKTAACRAVVKGNTPLTIEQMQRLLRQLMATKSPYTCPHGRPTTIVLSKSRLAGMFLRT | failed |
| MMTPEQIATVMTGKVEAAGKGRHEAVLASPMIQNHAPFLHLADDGALICAWFGGTLEGKSDISIFTSVLAAGSNKWGEPQRLSFDPDHSEQNPVLFAAPGNTLLLFHTSQPSGNQDECRIRMAEVSRDASDPTRLTAGEGLYLDLPRGCFVRAPLTVRADGAWLLPIFRCIQRPGQKWNGSHDRAAVGISEDCGKSWRLEDIDQSTGCVHMSPLVIGDEKLAAVFRRRQADFVYRTESADGGRTWSAPQATDVPNNNSSIAAIRLNDGRIAMICNPTNAAMSSDRRASLYDELGEDDDRPDANPDGGCVPIWGVPRAPVTVCISEDGAKSFPQRITIEDGPGTCLSNNSIDGHNKEMSYPWLLEGADGSLHIAYTYYRRAIKYVRLAPGWARAADGR | failed |
| MQPTGNQIQQNQQQQQQLIMRVPKQEVSVSGAARRYVQQAPPNRPPRQNHQNGAIGGKKSSVTIQEVPNNAYLETLNKSGNNKVDDDKLPVFLIKLWNIVEDPNLQSIVHWDDSGASFHISDPYLFGRNVLPHFFKHNNMNSMVRQLNMYGFRKMTPLSQGGLTRTESDQDHLEFSHPCFVQGRPELLSQIKRK | not failed |
| LANKQIESRIIQFDVEFPSDEVAKQLSIEKTVPVYHIIRLRKVEGEPYVIEETYMPSNVISELNEDVLHGSVYRHITETLKLTIAGSHRKIRADKSSALDREYLECAPDDPVLEVEQVAFLNTGEPFEYSFARHRYDKFVFSSVHIRK | failed |
| MHLWWRYHLATIIILFAMILTIYFLVPPLFYIEIIGVIFILFLWYIISPGILLRVIKSKKVENEDVLRKFEYALALVQMKKIKLHEINSSKPNAFVLGNFLSYNVIVTRGLLESLNDRELISVLLHELHHIKNRDIEIQLIYVLIVNTFYIYIANYNPLLGLSELVIGVVLLFPVHRLLEKNADIKACRTTNWIPLNLANALVKIGYLSRFLPHEIIRDYSEVDLTLAKETILRDDKKGFIFSTHPALSERLKYISKFIKTL | failed |
| HPKLVSSTPAEGSEGAAPAKIELHFSENLVTQFSGAKLVMTAMPGMEHSPMAVKAAVSGGGDPKTMVITPASPLTAGTYKVDWRAVSSDTHPITGSVTFK | not failed |
| MAIGSLSSLGLGSKVLNYDVIDKLKDADEKALIAPLDKKMEQNVEKQKALVEIKTLLSALKGPVKTLSDYSTYISRKSNVTGDALSASVGVGVPIQDIKVDVQNLAQGDI | failed |
| MYSALLNADIRIYGYLRASTDEQDASRAKNELMLFAEQMGFQVACWFEENESGAQLKRPELFRLLDIAISGDVILVEQVDRISRLNTQDWEKLKLMINKKGLKVVSLDLPTSYQFMSNTDDFTERMLSALNGMMLDMLAAVARKDYEDRRRRQAQGVQRAKLEGKYKGRPINTKLHNKIEGLLRENKSYSQIENLLGCSRHTISKVSKLIKSSIG | failed |

— a protein production outcome set (Wang et al. 2014)
